Measurements from patent publication US20200188541A1.

What was measured:
[1] = biological target: HER2 extracellular domain (coated on magnetic beads) (UniProt P04626); test: Lindmo method, magnetic beads coated with HER2 extracellular domain (BSA beads as negative control), paired-label
[2] = biological target: Human epidermal growth factor receptor 2 (HER2) on BT474M1 human breast carcinoma cells (human) (UniProt P04626); test: saturation binding of radiolabeled VHH on BT474M1 cells at 4 C, non-specific binding with 100-fold excess trastuzumab

immunoreactive fraction [1] | Kd [2] | Substance
81.3% |  | iso-[^211At]SAGMB-5F7 VHH
81.8% |  | iso-[^131I]SGMIB-5F7 VHH
83.5% | 4.5 nM | [^211At]SAGMB-5F7 VHH
84.5% |  | [^131I]SGMIB-5F7 VHH
